{"source": "a protein production outcome set (Wang et al. 2014)", "assay": "label from the status in PepcDB records"}
{"sequence": "MITFKEFVDYWFEAYASTAVKPSTQKRYRQLLKPALRAIGNKPLNKVKPLDIQNIYIALAGTQSNCTILKLHRLLHEIFKHAQMWEYISDNPVKKVVPPTPELEHHHHHH", "values": [{"measurement": "protein production", "result": "not failed"}]}
{"sequence": "MKPALHAIDATLPAPPTYTPAGNECALFEHAWKRRVPLLLKGPTGCGKTRFVAHMAARLGLPLFTVSCHDDLTAADLTGRYLLKGGETVWVDGPLTRAVRQGGICYLDEVVEARKDVAVVLHPLADDRRVLPLERTGEELQAPPHFMLVVSYNPGYQSLLKALKPSTRQRFAAIEFGFLAPEQEIAVVAAESGLPSERVAPLVALAGRLRKLKGHDLEEGVSTRLLVYCASLISEGLPVRDAVLAGLIEPLTDDADVKAALIEVAGVVIGLEHHHHHH", "values": [{"measurement": "protein production", "result": "not failed"}]}
{"sequence": "MREPMTWRTSPGQTADASRHPAIPSRSPLASRALSFLGALSLLTFAATPVLAESTPTAAPPQFAVESPKAASSLLLSVAHAGKRLVAVGDRGHILLSDDDGKTWTQAKVPTRQLLTSVFFVNERKGWAVGHDAQILVSDDAGSTWARQFEDLGREAPLLDIWFADEQHGLAVGAYGALLETRDGGQHWEDVSERLDNEDQFHLNAIAAVKDNGLLVVGEAGSLFRSKDWGATWEKLEGPYEGSLFGAIGTADAGGVLVYGLRGHLFRSADFGDSWEEIPLKAASGDLEFGLSDGALLADGRIVVVGHGGSVLESTDGGRSFSVFNRPDRLSLAGVSATGDGHLILVGQGGVHLAAANGAALEQQQ", "values": [{"measurement": "protein production", "result": "failed"}]}
{"sequence": "MSGEKIDITPKKDGGVLKLIKKEGQGVVKPTTGTTVKVHYVGTLENGTKFDSSRDRGDQFSFNLGRGNVIKGWDLGVATMTKGEVAEFTIRSDYGYGDAGSPPKIPGGATLIFEVELFEWSAEDISPDRDGTILRTIIVEGSKNSFPNDTSKVLAHCVGTYQGTEFYNREVNFHIGEGSEEGLPEGVERALRRFQLGEKSKIEIRGHKYTYGNSPPAGSNIPVNATLEFTIFLKEFEKVPATWEMTAEEKLDAAKQAKDRGTMYLQKGNLKLAYNKYKRAEEVLEYEKSTDPEKMAERETILNGAYLNLSLVCSKQNEQLECIKWCDKVLETKPGNVKALYRKATALLTMNEVRDAMKLFEKIVEVEPENKAAAQQIIVCRNTIREQNERDKKRFKNLFAKISTEEDKPTNTVEDEDEIVASTSGSSTSNA", "values": [{"measurement": "protein production", "result": "not failed"}]}
{"sequence": "MEYVYAALILNEADEEINEDNLTDVLDAAGVDVEESRVKALVAALEDVDIEEAVDQAAAAPVPASGGAAAPAEGDADEADEADEEAEEEAADDGGDDDDDEDDEASGEGLGELFGLEHHHHHH", "values": [{"measurement": "protein production", "result": "not failed"}]}
{"sequence": "MDLWKLYQPGTPAAIVAWGQLGTAHAKTTYGLLRHSRLFKPVCVVAEHEGKMASDFVKPVRYDVPVVSSVEKAKEMGAEVLIIGVSNPGGYLEEQIATLVKKALSLGMDVISGLHFKISQQTEFLKIAHENGTRIIDIRIPPLELDVLRGGIYRKKIKVVGVFGTDCVVGKRTTAVQLWERALEKGIKAGFLATGQTGILIGADAGYVIDAVPADFVSGVVEKAVLKLEKTGKEIVFVEGQGALRHPAYGQVTLGLLYGSNPDVVFLVHDPSRDHFESFPEIPKKPDFEEERRLIETLSNAKVIGGVSLNGGFETDLPVYDPFNTDDLDEMLERAMVW", "values": [{"measurement": "protein production", "result": "not failed"}]}
{"sequence": "MVPTPKPVVDRMLELADVDETDVLYDLGSGDGRIVIRAARTHGARGVGIEIDPDLVKKARKNAKEAGVADLVEFRQGDLFEADISEATVVTLYLLPSVNQKLRPILFEQLSPGTPVVSHDFDMGRWAPDRTVDLEGDTVYRWTIPLEHHHHHH", "values": [{"measurement": "protein production", "result": "failed"}]}
{"sequence": "MYLRPDEVARVLEKVGFTVDVVTQKAYGYRRGENYVYVNREARMGRTALVIHPTLKERSSTLAEPASDIKTCDHYQQFPLYLAGERHEHYGIPHGFSSRVALERYLNGLFGEAS", "values": [{"measurement": "protein production", "result": "failed"}]}
{"sequence": "MNIKSAFIRKRGEKFYVYVEYIEETTGKIKQKSYGSYEKKKDAEKHLIEIKSTINNNKFVAPKDITFVERCYKYIDMNKNNWSPYTVTSTKSWVKNYIEPFFKNLKLTEVNPSSVQAFVNYNFNNSTFTSAKVRYSFLSSVIREAYRLREIQENSCDFIKLPSKEKYSTNEIYNREEVLLLIEKLLGNNIEIPILLMLLLGLRMGEATGLRWSDVDLDNNLINVNQILVYSNGKISFKEPKTPKSKRALSAPKELIEKLKIEKLRQSKLKLQGILENKNNLVCLNTNLNPFLPSSLRKTFHNFTKKNNLKKIRIHDLRHTSATLLLLGGTNMKVVSERLGHTDIKITMNRYSHVLKEMDKEASDNLSELLFK", "values": [{"measurement": "protein production", "result": "failed"}]}
{"sequence": "MLKRLSVVHSPNGAPMAPSSHEWTDTLKDVYTARAANADLNARYIPLLPVNQRIQHERDRALANMLRQHLSVPPAQARVLEVGCGSGSNLLDLIRLGFDPANLMGNDLMDSRVEQARHRLPQAVPILAGNALDLDLEREGFDVLYQSTVFTSILDAQARRDLAQRMWHWTKPGGGVLWYDFAYNNPRNPNVRGVPLREVRALFPHARIHTARVTLAPPLARRLPATLYAPVNNLCPFLRTHLLCWIGKPAAP", "values": [{"measurement": "protein production", "result": "failed"}]}
{"sequence": "AKVVFYEKPGCVGNARQKALLTASGHELEVRNLLAEPWTRETLRPFFGDKPLIEWFNQSSPKVKAGAIDFAALGVEAALALMIEDPLLIRRPLMQSGDRREVGFDQATVHAWLG", "values": [{"measurement": "protein production", "result": "failed"}]}
{"sequence": "MTIATSTKPQINWVNTLFFLGLHIGALFAFIPSNFSWAAVGVALLLYWITGGLGITLGFHRLVTHRSFQTPKWLEYFLVLCGTLACQGGPIEWVGTHRIHHLHSDTDPDPHDSNKGFWWSHIGWLIYHSPSHADVPRFTKDIAEDPVYQFLQKYFIFIQIALGLLLLYLGGWSFVVWGVFFRIVWVYHCTWLVNSATHKFGYRTYDAGDRSTNCWWVAVLVFGEGWHNNHHAFQYSARHGLEWWEVDLTWMTVQLLQILGLATNVKLADKKQ", "values": [{"measurement": "protein production", "result": "failed"}]}
{"sequence": "MASREVSITRISPLATFRVALAMSIIGLVAWIICVTVLYFGLNVAGVWQNFNDVIGGVGAEQTITFGLVLSISALLGAIGAITVAVLAPLCAIIYNSIVDLFGGLQIQLQEEVD", "values": [{"measurement": "protein production", "result": "failed"}]}
{"sequence": "MSKQLLALNIDGALLRSNGKIHQATKDAIEYVKKKGIYVTLVTNRHFRSAQKIAKSLKLDAKLITHSGAYIAEKIDAPFFEKRISDDHTFNIVQVLESYQCNIRLLHEKYSIGNKKKVNSNLLGKALIHPSDPIFYPVQFVESLSDLLMDEPVSAPVIEVYTEHDIQHDITETITKAFPAVDVIRVNDEKLNIVPKGVSKEAGLALVASELGLSMDDVVAIGHQYDDLPMIELAGLGVAMGNAVPEIKRKADWVTRSNDEQGVAYMMKEYFRMQQRKGFLDKFHMKRV", "values": [{"measurement": "protein production", "result": "failed"}]}
{"sequence": "MTVITLVLGMLLPAVVSILMLMASTQSRISEEENMMRAGLVEGMGLQVDEVVDALAQSLEVIAANGGADADDATRWTRLLQASRAFGKQFLEFHVANPNGDVISSSASLPEGINVADRAYFSTSLATEGMVASEGLVSRHTGQIALYFALAVRSDEEAHSGVVFAGFNGEVFGDMLRKAGPRSDGLTVFVLDRNGDSVYEHLPSGGRHPVHIPPADLRDCADGRRAWLEFGGTRHAVSVMAKRLATGEAPYLYLLVSTPDESFFSLSTLRGVTPLLLGTLCVALAALAAANRRIVHPLESLTRKVQAIEAGQPLPETAMESVREIGGLQTAVTRMAQAISQREQELAWFATHDDLTGLANRKALHEMLAARLDRLEEGASETVAVIFIDIDRFKAINDSMGHTWGDNVIAAFAARLGAFMHPLHAFCARVGGDEFVVVPDASATHNVVRDTRALLAHLGTPYDINGREVRLSASAGVLFVGDPGESPDVIIRNANAAMHRSKERGFGRISIFRPLHLDSYMLRLDIERELPLAAATGQLHMVYQPIVNASDGSLHSFEALMRWNHPRHGSLSPATFITVAEQTGHVGLLGDFALREAGACVRRFGEAGLLTPGLRFGVNISPAHLMAQDFLSDIESVLDAVSVPGDRITLEVTESALISTGAELMGRLETLAKRGLNFAIDDYGAGYSNIQYLASEHFRVIKIDKSLIDEVHLRDRMRAIVRSTVQLAHSLGCKIVAEGVETHAQANLLARLGCDYLQGYLFSRPVPETDAMRLAIRAMDQGTLLPPEAHPDA", "values": [{"measurement": "protein production", "result": "failed"}]}
{"sequence": "MAVGLPLLLSSMAMPAQAAPAPEAPGNVAGVAKKNLDPGSYKDGRYMVVLAEKPAATYDGGTAGLAPTKPEEGKKLDVDSAEVKQYQQHLQQKQQEVAQQENVTIKRDFTTAVNGFSATLTADQAINLAKDPKVLMVAPDTQYAPDYSTTDFLKLSGPNGTWATQYGGQDNAGKGTVVGVIDTGYTPSNPFFAGEPVGPLVGNPQVGVPYRTADGKIAMLKADGDTFVGECQPGTDTGADYDGSACNSKVLSTHYFADAFLETVPPENRAPEEVISPVDVDSHGTHTASTAAGNANVDAVVDGRSFGTTSGIAPAAKLSVYKVCWEDTDPATGGCYGSASVDAIEQAILDGVDVLNYSISGSTTSTTDPVSLAFLSAASAGIFVATSAGNSGPTASTVNHGAPWLTTVAATSFSQELQGTVEFSDGSKFRGASIMNREVTGAGVVLSTNAASGEGNAALCAPGSLDPAKVAGKVVVCDRGVVDRTAKSAEVLRGGGVGMILVNLTDSSLDTDKHIIPTVHVNPPATQTIKDKVTANPAITVSLLNRDTTGLPAEAQPQIAGFSSRGPLLATDSDLLKPDVSAPGVAILAGVSPIGTGGDNFGFLSGTSMASPHVAGFGALILAKNPQWSPATVKSAMMTTAGPVKLANGAVNKDVFATGAGQVDPAKVLSPGLVYDATTEDYLKFIQGTGMDLGMEGLGTTQARDMNVPSFALGNLAGKIEVTRTLTALTPGTYRASVNVPGVNVKVTPSVLTFGAPGEKKTFKVQFENNNAALGKFAMGSLNWQGANKTVTSPIAVRPQSVIADKALAFTGTGPNGSGTINITSGTNLPVGVTIDGLSKADSSAVELVPGPFAGETNASNYVKKVTVGEGSALAKFSVISSNEAADFDMLVVTPSGQQLPAATASASETLSVPNPAAGDYYVYANLYASPNNQATKATVDAAVLGANQGNASVTPNPIRLANGKTGQISLNWKNLEPGSYIGRLTFAGTSEPSFVTVLVNPGGAVVVPDEEDPKKDKKDKKHRGKIRADEPTQSNNAG", "values": [{"measurement": "protein production", "result": "failed"}]}
{"sequence": "MQGNALTILLSGKKYLLLQGPMGPFFNDVAEWLESLGRNAVNVVFNGGDRFYCRHRQYLAYYQTPKEFPGWLRALHRQYDFDTILCFGDCRPLHKEAKRWAKSKGIRFLAFEEGYLRPQFITVEEGGVNAYSSLPRDPDFYRKLPDMPAPHVENLKPSTMKRIGHAMWYYLMGWHYRHEFPRYRHHKSFSPWYEARCWVRAYWRKQLYKVTQRKVLPRLMNELDQRYYLAVLQVYNDSQIRNHSNYNDVRDYINEVMYSFSRKAPKESYLVIKHHPMDRGHRLYRPLIKRLSKEYGLDERVIYVHDLPMPELLRHAKAVVTINSTAGISALIHNKPLKVMGNALYDIKGLTYQGHLHQFWQADFKPDMKLFKKFRGYLLVKTQVNGGYYGGVKFENALGMNKDFLFGSKSIS", "values": [{"measurement": "protein production", "result": "failed"}]}
{"sequence": "MNQSPSILRKTRKGEYMAFADLAAEKTQGVDYDFLVLDRASAVAIVAPHGGWIEHGTSELATAVAGDDFSLYLFEGLKPKRPHSELHIPSEYFDENRCVDLVSRARIVIGMHGRADGDDPETIWLGGLGKELRDAIAAALEAAGFKAITSGHRLPGEHKNNICNRGINQAGVQLEPCRWSNRCLSATETHSTSATTAIISRLSIAA", "values": [{"measurement": "protein production", "result": "failed"}]}
{"sequence": "MGTMNVVGLAIYLYAGFLSFIFGFISLYAFIKYSKLERKNKEIIYVYVDNLKNFSPYMFYSILLTFTIVFVIFALFICFVFNFDLYLGLTMLFSYFLIIYLFCFKKYRVEIYKDGFYGVFQN", "values": [{"measurement": "protein production", "result": "failed"}]}
{"sequence": "MITNNVSLLIMGIDENQERQKEYNGAFHTDALLLATFNKDDKTVKLTSIPRDTYTYVPVEKKKDKITHAYGSGFVKNGKDGGPQTSVEAVEKLLQVPVDYFVKFNFNSFTKIVDGLDGIEVDVPVEFTEQNSKDEPDAIHLKKGLQKLTGEEALALARTRHIDSDAMRGQRQQLVIEAILSKLKSVGSITKLEKIVEAVDGDFKTNLAMDDILSFYKYGLNCSIEKIQLAGDDLYLPNGPNGQRVYYYNPNKKDLQSLSNTLRTHLGLSEKQIEENLEHHHHHH", "values": [{"measurement": "protein production", "result": "not failed"}]}
